From patent US20240352102

Key:
[1] = tested on: tau isoform 1N4R (4R tau, MAPT) (Homo sapiens), P10636-7; experiment: SPR; settings: 50 mM HEPES, 25 mM NaCl, 0.1% Tween-20, pH 7.4
[2] = tested on: tau isoform 1N3R (3R tau, MAPT) (Homo sapiens), P10636-4; experiment: SPR; settings: 50 mM HEPES, 25 mM NaCl, 0.1% Tween-20, pH 7.4; poly(A) length not restated for 3R
Chain of tau isoform 1N3R (3R tau, MAPT) (Homo sapiens), P10636-4 (P10636 other isoform, or with tags, fused parts or gaps): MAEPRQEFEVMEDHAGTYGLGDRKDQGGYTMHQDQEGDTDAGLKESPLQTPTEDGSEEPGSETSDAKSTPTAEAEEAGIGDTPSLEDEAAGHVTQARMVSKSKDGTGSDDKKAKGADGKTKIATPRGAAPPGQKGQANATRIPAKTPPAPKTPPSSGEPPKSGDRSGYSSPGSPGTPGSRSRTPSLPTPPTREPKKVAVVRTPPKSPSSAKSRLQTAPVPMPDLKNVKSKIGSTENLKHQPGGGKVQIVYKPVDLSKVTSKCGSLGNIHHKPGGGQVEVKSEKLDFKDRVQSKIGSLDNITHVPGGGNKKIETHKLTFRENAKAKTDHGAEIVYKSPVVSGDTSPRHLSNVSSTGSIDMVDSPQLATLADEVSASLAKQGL

Chain of tau isoform 1N4R (4R tau, MAPT) (Homo sapiens), P10636-7 (P10636 other isoform, or with tags, fused parts or gaps): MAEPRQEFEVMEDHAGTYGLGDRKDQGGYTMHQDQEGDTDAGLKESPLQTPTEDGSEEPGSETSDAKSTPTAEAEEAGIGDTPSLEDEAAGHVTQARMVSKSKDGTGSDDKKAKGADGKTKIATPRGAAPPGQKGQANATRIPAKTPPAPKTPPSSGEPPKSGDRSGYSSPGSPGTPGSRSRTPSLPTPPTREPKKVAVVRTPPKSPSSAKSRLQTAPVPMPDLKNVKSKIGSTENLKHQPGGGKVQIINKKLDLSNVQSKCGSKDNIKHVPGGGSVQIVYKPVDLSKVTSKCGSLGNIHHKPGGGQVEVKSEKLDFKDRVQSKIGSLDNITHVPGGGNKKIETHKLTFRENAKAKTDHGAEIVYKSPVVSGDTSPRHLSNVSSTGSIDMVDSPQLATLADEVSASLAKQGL

| Substance | Kd [1] [nM] | Kd [2] [nM] | Kd ([1]; streptavidin chip, poly(A)20 length from FIG. 1B trace) [nM] |
| --- | --- | --- | --- |
| biotin tRNA-Lys | > 30 |  |  |
| A [biotin poly(A)20 RNA] |  | 8.3 | 7.2 |
